# Measured values published in patent US20230348573A1 (KEIO UNIVERSITY, published 2023).
# How the values were obtained:
# [1] = biological target: T1, full-length spike protein of SARS-CoV-2 (Wuhan strain) (SARS-CoV-2 (Wuhan strain), UniProt P0DTC2 14-1273); assay: ACE2 competition, spike on 293T cells, antibody 4 µg/mL
# T1 construct: whole, on cells; Expressed in 293T cells
# [2] = biological target: spike protein of SARS-CoV-2 (Wuhan strain) on pseudovirus (SARS-CoV-2 (Wuhan strain), UniProt P0DTC2 14-1254); assay: cell-based or functional assay
# [3] = biological target: T2, RBD derived from SARS-CoV-2 (Wuhan strain) (SARS-CoV-2 (Wuhan strain), UniProt P0DTC2 319-541); assay: RBD beads, antibody 0.25 µg/mL, then labelled ACE2, flow cytometry
# T2 construct: domain: RBD
# [4] = biological target: T2, RBD derived from SARS-CoV-2 (Wuhan …); assay: RBD beads, antibody 1 µg/mL, then labelled ACE2, flow cytometry
# [5] = biological target: T2, RBD derived from SARS-CoV-2 (Wuhan …); assay: RBD beads, antibody 4 µg/mL, then labelled ACE2, flow cytometry
# [6] = biological target: T2, RBD derived from SARS-CoV-2 (Wuhan …); assay: BLI (Octet), RBD of the Wuhan strain
Binder,binding amount (%) of ACE2 protein [1] [%],IC50 of pseudovirus infection (luciferase) [2] [µg/mL],fluorescence of ACE2 protein [3],fluorescence of ACE2 protein [4],fluorescence of ACE2 protein [5],Kd [6] [nM]
"Ab863 (antibody, V domains shown) VH: EVQLVQSGAEVKKPGASVKVSCQASGYTFITYYMHWVRQAPGQGLEWMGIINPDGGSISYAQKFQGRVTMTRDTSTSTVYMELSSLRSEDTAVYYCARGLSPTFSSSWFDNWGLGTLVTVSS VL: DVVMTQSPATLSVSPGERATLSCRASQSVSSNLAWYQQKPGQAPRLLIYGASTRDTGIPARFSGSGSGTEFTLTISSLQSEDFAVYFCQQYKNWLLTFGGGTKVEIK",1.7,,,,,
"Ab830 (antibody, V domains shown) VH: QVQLVQSGAEVKKPGSSVKVSCKTSGGTFTNYTISWVRQAPGQGLEWMGRIIPIFDIVNYAQKFQGRVTITADKSTSTTYMELSSLRSEDTAVYYCARDGVLYDTSGYLYDAFDIWGQGTMVTVSS VL: DIQMTQSPSSLSASVGDRVTITCRASQGINNYLAWFQQKPGKAPKSLIYAASSLQSGVPPKFSGSGSGTDFTLTISSLQPEDFATYYCLHYNSYPWTFGQGTKVEIK",0.9,0.0349,,,,
"Ab709TK (antibody, V domains shown) VH: QVQLVESGGGVVQPGKSLRLSCAASGFTFSSYAMHWVRLAPGKGLEWVAVISPDGKNKYYVDSVKGRSTISRDNSKNTLYLLMNSLRAEDTAVYYCATTQSLWFGQFYYIYGMDVWGQGTTVTVSS VL: QSVLTQPHSVSESPGKTITISCTGSSGSIASNYVQWYQQRPGSAPTTVIYEDTERPSGVPDRFSGSIDSSSNSASLTISGLKTEDEADYYCQSYDSNNVVFGGGTKLTVL",0.6,0.0717,,,,
"Ab175 (antibody, V domains shown) VH: EVQLVESGGGLVQPGGSLRLSCAASGIIVSSNYMTWVRQAPGKGLEWVSVLYSGGSTFYADSVKGRFTISRDNSKNMLYLQMNSLRAEDTAVYYCARDLQELGVDCWGQGTLVTVSS VL: DIQLTQSPSFLSASVGDRVTITCRASQGISSYLAWYQQKPGKAPKLLIYAASTLQSGVPSRFSGSGSGTEFTLTISSLQPEDFATYYCQQLDSYPRFGGGTKVEIK",6.9,,1660,439,,
"Ab302 (antibody, V domains shown) VH: EVQLVESGGGLVQPGGSLRLSCAASGVIVSRNYMTWVRQAPGKGLEWVSVIYSGGSTFYADSVKGRFTISRDNSKNTLYLQMNSLRAEDTAVYYCARDRGEDVFDIWGQGTMVTVSS VL: DIQLTQSPSSLSASVGDRVTITCRASQGISSYLAWYQQKPGKAPKLLIYAASTLQSGVPSRFSGSGSGTDFTLTISSLQPEDFATYYCQQLNSYPGYTFGQGTKLEIK",4.7,,1400,372,189,
"Ab315 (antibody, V domains shown) VH: EVQLLESGGGLIQPGGSLRLSCAASGLIVSSNYMSWVRQAPGKGLEWVSVIYSGGSTYYADSVKGRFISSRDNSKNTLYLQMNSLRAEDTAVYYCARGELDLPYGMDVWGQGTTVTVSS VL: QAVVTQPPSVSAAPGQKVTISCSGSSSNIGNNYVSWYQQLPGTAPKLLICDTNKRPSGIPDRFSGSKSGTSATLGITGLQTGDEADYYCGTWDRSLSAGVFGGGTKLTVL",5.2,,927,307,160,
"Ab369 (antibody, V domains shown) VH: QVQLVQSGAEVKKPGASVKVSCKASGYTLTNRAIHWVRQAPGQRLEWMGWINAGKGNTKYSQKFQGRVTITRDTSASTAYMELSSLKSEDTAFYYCATGDGYNYGYDSWGQGTLVTVSS VL: NFMLTQPPSVSVAPGKTARISCGGTNIGSKSVHWYQQKPGQAPVLVVHDDSDRPSGIPERFSASNSGNTATLTISRVEAGDEADYYCQVWDSTSDLPEVVFGGGTKLTVL",4.1,,1640,430,107,0.197
"Ab712 (antibody, V domains shown) VH: QVQLVQSGSELKKPGASVKISCKASGYTFINHAINWVRQAPGQGLEWMGWINTNTGNPTYAPGFTGRFVFSLDTSVSTAYLQISSLKAEDTAVYYCARIPIRDYDYDGSGYYYFLDYWGQGTLVTVSS VL: SYELTQDPAVSVALGQTVRITCQGDSLRSSSASWYQQKPGQAPVLVIYGKTNRPSGIPDRFSGSSSGNTASLTITGAQAEDEADYYCNSRDNSGNHPVVFGGGTKLTVL",4.6,0.105,,,,
"Ab376 (antibody, V domains shown) VH: EVQLVESGGGLVQPGGSLRLSCEASEFTLNSHYMNWVRQAPGKGLEWVSVIYSSGSTYYADSVKGRFTISRHNSKDTLYLQMNSLKPEDTAVYYCARPNYGGNSIWYFDLWGRGTLVTVSS VL: DIQMTQSPSSVSASVGDRVTITCRASQGIGSWLAWYQQTPGKAPKLLIYAASSLQSGVPSRFSGSGSGTDFTLTISSLQPEDFATYYCQQANSFPLTFGGGTKVEIK",5.1,,445,134,45,0.11
"Ab847 (antibody, V domains shown) VH: EVQLVQSGAEVKKPGASVKVSCKASGYTFTSYDIIWVRQATGQGLEWMGWMDPSRGTTGYAQTFQGRVTMTRDTSISTAYLELNSLTSEDTAVYYCVAHIVVLDRWFDPWGQGTLVTVSS VL: DIVMTQSPSSLSASVGDRVTITCQASQDIGNFLNWCQQKPGQAPKVLIYGASNLETGVPSRFSGSGSGTDFTFTISSLQPEDIATYYCQHYDNFPPRFTFGQGTKLDIK",0.3,0.0403,,,,
"Ab765 (antibody, V domains shown) VH: QVQLVESGGGVVQPGRSLRLSCAASGFTFSDYAIHWVRQAPGRGLEPVALISYDGNNKYYADSVKGRFTISRDNSKNVLYLQMNSLRADDTAVYYCARDAEGGWVAALDYWGQGTLVTVSS VL: QSALTQPRSVSGSPGQSVTISCTGTSSDVGGYNYVSWYQHHPGKAPKVMIYEVSKRPSGVPDRFSGSKSGTTASLTISGLQAEDEADYYCCSYAGTYPYVFGTGTKVTVL",0.9,0.005,,,,
"Ab864 (antibody, V domains shown) VH: EVQLVESGGGLVQPGRSLRLSCAASGFTFDDYAMHWVRQVPGKGLEWVSGISWNKGNIDYADSVKGRFTISRDNAKNSLYLQMNSLRPEDTGLYYCAKDCHYDSPGYFPNCLHSWGQGTLVTVSS VL: EIVMTQSPSSLSASVGDRVTITCRASQGINTYLAWYQQKPGKAPKLLIYTASTLQSGVPSRFSGSGSGTDFTLTISSLQPEDFATYYCQQVHSYPLTFGGGTKVEIK",0.4,0.0084,,,,3.9
"Ab816 (antibody, V domains shown) VH: QVQLVQSGAEVKKPGESLMISCKASGYNFRNYWIAWVRQMPGKGLEWMGIIHPGDSDIRYRPSLQGHVTISADKSITTAYLQWGSLKASDTAMYYCTRITTDADSSGLFHYWGQGTLVTVSS VL: EIVLTQSPSTLSASVGDRVTITCRASQNIYTWLAWYQRKPGKAPKVLIYKASSLESGVPSRFSGSGSGTEFTLTISSLQPDDFATYYCQQYKSAWSFGQGTKVEIK",0.3,0.023,,,,
"Ab176 (antibody, V domains shown) VH: EVQLVESGGGLVQPGGSLRLSCAASGFTFSSYSMNWVRQAPGKGLEWVSYISGSSSTIYYADSVKGRFTISRDNAKNSLYLQMNSLRAEDTAVYYCVSSEWLLPRFFDYWGQGTLVTVSS VL: QPVLTQEASVSGTVGQKVTLSCTGNRNNIGSYPVGWYQQISHGAPKTVMFGNSPPSGIPDRFFGSRSGTTASLTISGLQPEDEADYYCSTWDYSLSAVVFGGGTKLTVL",8.3,,2660,1190,366,
"Ab114 (antibody, V domains shown) VH: EVQLVESGGGLIQPGGSLRLSCAASGFTVSSNYMNWVRQAPGKGLEWVSVIYSGGSTFYADSVKGRFTISRDNSKNTLYLQMNSLRVEDTAVYYCARDLDTQGGMDVWGQGTTVTVSS VL: EIVLTQSPGSLSLSPGERATLSCRASQGVSSSYLAWYQHKPGQAPRLLIFGASTRATGIPDRFSGSGSGTDFTLTISRLEPEDFAVYYCQLYGSSPGTFGQGTKLEIK",10.9,,3900,2040,672,
"Ab803 (antibody, V domains shown) VH: EVQLVESGGGLVQPGRSLRVSCAASGFTFDDYAMHWVRQTPRKGLEWVAGISRNSAAIAYADSVKGRFTISRDNAKNSVFLQMNGLRADDTALYYCVKSPRYGWGSPDYSFDFWGRGTLVTVSS VL: DIQLTQSPSSLSASVGDRVTITCRASQNIGTYLNWYQQEPGKAPKLLIYAASSLQSGVPSRFSGSGSGTDFTLTISSLQPEDFATYCCQQSFTTPLTFGQGTKVEIK",0.9,0.0468,,,,
"Ab374 (antibody, V domains shown) VH: EVQLVESGGGLIQPGGSLRLSCVASGFTVSSNYLAWVRQAPGQGLEWVSLIYPGGSTFYADSVKGRFTISRGNSNNTLYLQLNSLRTEDTAVYYCASLYRRGGDSWGQGTLVTVSS VL: DIQMTQSPSSLSASVGDRVTITCQASQDIRNYLNWYQQKPGKAPKLLIYDASNLQTGVPSRFSGRGSGTDFTFTISSLQAEDIATYYCQQYDNLPITFGQGTRLEIK",10.1,,1360,429,244,
